Laboratory results: patent US20150267176

Key:
SCL enhancer TALE-LSD1 = test: cell_activity; details: K562 ChIP-qPCR vs mCherry; H3K27ac reduced >4-fold
[1] = tested on: SCL enhancer TALE-3X FLAG; details: anti-FLAG ChIP-seq in K562, input 1; top ranked and only reproducible peak; exact SCL target not identified in text (candidates SEQ 9, 11, 37)
[2] = tested on: TALE-LSD1 #11 (ZFPM2 +16); test: cell_activity; details: expression change not significant; histone modification levels at target reduced; +16 matched to #11 by coordinates
[3] = tested on: TALE-LSD1 #25 (ZFPM2 +10); test: cell_activity; details: K562 RT-qPCR; +10 enhancer matched to #25 by coordinates; also reduces enhancer histone marks
[4] = tested on: TALE-LSD1 #28 (ZFPM2 +45); test: cell_activity; details: expression change not significant; histone modification levels at target reduced; +45 matched to #28 by coordinates

## SCL enhancer 18 bp TALE target (18/18)
SCL enhancer TALE-LSD1
  activity (fold reduction of H3K4me2): 3
[1]
  binding signal (tags per 1 kb bin): 17.5

## TALE #11 target chr8:106,347,824
[2]
  activity (% reduction of ZFPM2 expression): 13

## TALE #25 target chr8:106,341,287
[3]
  activity (fold reduction of ZFPM2 expression): 2

## TALE #28 target chr8:106,376,850
[4]
  activity (% reduction of ZFPM2 expression): 22
